Literature values as cited in publication PMC10474648, “Design of chimeric GLP-1A using oligomeric bile acids to utilize transporter-mediated endocytosis for oral delivery” (Biomaterials Research, 2023).

Experiments:
[1] = cited from earlier work
Description: Diabetes is a representative chronic disease that requires lifetime management. Because of the need for frequent and combination dosing, most hypoglycemic therapeutics are small molecule-based oral drugs.

GLP-1R = conditions: read-out: Kd, GLP-1R binding; cited from earlier work
Description: Cellular penetration may occur by two pathways: the paracellular and transcellular pathways. […] Additionally, ...

Row | Substance | Half-life [1] | Kd (GLP-1R)
1 | dulaglutide | 120 h | –
2 | semaglutide | 170 h | 0.38 nM
